What was measured:
[1] = target: T1, Cut14^Smc2 (fission yeast condensin SMC subunit) (S. pombe, UniProt P41003 1-1172); assay: cross-linking; sulfo-SDA cross-link mass spectrometry (CLMS) of the purified five-subunit condensin complex with equimolar 124 bp linear dsDNA, no nucleotide (initial state); CL buffer, 30°C 30 min, UV 365 nm on ice; 1% FDR at residue-pair level; conditions: both partners purified
T1 construct: Cut14 (Smc2), S. pombe condensin SMC subunit; cDNA cloned into an S. cerevisiae expression vector; The Pk tag is used for the condensin immunoprecipitation in the DNA assays; also called Cut14-3xPk; source: S. cerevisiae (w303, pep4 deleted), co-overexpressed with the other four condensin subunits from GAL1-10 promoters; in cell extract, and purified as the complex (IgG-agarose, 3C protease …)
T1 sequence (looked up): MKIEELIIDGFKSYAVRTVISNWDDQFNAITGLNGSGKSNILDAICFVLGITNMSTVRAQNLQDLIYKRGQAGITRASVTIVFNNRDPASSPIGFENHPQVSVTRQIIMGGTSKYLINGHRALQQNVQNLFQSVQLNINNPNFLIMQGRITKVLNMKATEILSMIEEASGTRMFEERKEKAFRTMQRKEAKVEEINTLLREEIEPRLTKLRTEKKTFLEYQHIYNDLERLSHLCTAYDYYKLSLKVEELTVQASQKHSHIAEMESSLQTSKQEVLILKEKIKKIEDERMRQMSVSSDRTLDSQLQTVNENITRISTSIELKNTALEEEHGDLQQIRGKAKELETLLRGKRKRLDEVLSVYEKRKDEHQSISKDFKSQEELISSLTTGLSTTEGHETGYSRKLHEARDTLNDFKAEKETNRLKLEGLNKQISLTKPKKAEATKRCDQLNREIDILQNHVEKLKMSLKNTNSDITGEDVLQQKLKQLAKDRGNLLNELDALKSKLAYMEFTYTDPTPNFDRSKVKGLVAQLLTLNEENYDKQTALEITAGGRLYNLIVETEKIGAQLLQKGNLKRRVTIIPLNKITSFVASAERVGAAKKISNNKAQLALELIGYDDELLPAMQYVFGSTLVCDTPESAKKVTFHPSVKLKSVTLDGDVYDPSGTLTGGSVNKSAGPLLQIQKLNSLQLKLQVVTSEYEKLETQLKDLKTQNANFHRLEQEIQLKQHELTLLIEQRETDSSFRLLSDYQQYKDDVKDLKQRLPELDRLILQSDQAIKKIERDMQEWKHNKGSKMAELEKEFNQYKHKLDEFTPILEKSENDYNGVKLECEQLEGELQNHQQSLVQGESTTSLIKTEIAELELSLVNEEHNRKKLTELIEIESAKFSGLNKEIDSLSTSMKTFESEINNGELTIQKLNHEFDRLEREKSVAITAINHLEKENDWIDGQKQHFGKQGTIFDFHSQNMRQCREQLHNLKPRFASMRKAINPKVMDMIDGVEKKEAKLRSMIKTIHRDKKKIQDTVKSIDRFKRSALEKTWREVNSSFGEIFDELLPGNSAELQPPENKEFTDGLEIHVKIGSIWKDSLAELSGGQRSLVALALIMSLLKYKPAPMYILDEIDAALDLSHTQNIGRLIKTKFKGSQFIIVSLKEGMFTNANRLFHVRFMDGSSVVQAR

[2] = target: T2, Cnd1^Ycs4 (fission yeast condensin HEAT-repeat subunit) (S. pombe, UniProt O94679 1-1158); assay: cross-linking; sulfo-SDA cross-link mass spectrometry (CLMS) of the purified five-subunit condensin complex with equimolar 124 bp linear dsDNA and 0.5 mM ADP·BeF3 (DNA-gripping state); CL buffer, 30°C 30 min, UV 365 nm on ice; 1% FDR at residue-pair level; conditions: both partners purified
T2 construct: Cnd1 (Ycs4), S. pombe condensin HEAT-repeat subunit; cDNA cloned into an S. cerevisiae expression vector; source: S. cerevisiae (w303, pep4 deleted), co-overexpressed with the other four condensin subunits from GAL1-10 promoters; in cell extract, and purified as the complex (IgG-agarose, 3C protease elution, heparin, Superose 6)
T2 sequence (looked up): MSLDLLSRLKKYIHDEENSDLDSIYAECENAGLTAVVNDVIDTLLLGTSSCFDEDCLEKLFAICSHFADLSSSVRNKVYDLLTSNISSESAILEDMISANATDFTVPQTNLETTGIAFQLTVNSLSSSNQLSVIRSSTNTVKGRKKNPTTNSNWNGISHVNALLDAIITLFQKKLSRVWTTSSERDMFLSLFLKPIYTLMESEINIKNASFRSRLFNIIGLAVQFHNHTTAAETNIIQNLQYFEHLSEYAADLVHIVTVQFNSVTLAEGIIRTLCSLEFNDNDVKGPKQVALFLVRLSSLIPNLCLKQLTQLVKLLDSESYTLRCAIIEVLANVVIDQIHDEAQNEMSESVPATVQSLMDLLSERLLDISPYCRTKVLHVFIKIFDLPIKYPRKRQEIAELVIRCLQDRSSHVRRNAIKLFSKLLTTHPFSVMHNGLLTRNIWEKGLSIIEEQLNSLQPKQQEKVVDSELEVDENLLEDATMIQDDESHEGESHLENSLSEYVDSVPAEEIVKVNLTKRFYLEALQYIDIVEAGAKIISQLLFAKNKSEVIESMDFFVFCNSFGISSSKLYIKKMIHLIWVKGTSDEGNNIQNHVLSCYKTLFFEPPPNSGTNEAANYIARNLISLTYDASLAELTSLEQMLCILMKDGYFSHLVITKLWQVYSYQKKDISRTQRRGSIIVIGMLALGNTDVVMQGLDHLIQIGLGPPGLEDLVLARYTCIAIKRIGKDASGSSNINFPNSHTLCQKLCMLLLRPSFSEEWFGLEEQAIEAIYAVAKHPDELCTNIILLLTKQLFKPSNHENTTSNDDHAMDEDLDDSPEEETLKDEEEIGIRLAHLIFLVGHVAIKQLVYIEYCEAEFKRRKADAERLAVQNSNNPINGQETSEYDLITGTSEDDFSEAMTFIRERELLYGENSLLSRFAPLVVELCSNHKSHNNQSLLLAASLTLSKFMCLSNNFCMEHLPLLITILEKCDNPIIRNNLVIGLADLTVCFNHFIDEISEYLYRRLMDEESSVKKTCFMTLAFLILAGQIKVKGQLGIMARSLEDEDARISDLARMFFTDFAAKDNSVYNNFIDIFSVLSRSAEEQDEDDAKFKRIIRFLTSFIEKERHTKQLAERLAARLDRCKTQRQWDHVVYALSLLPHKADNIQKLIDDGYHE

binding result [1]: binds | binding result [2]: binds
B1: Cnd3^Ycg1 (fission yeast condensin HEAT-repeat subunit) (natural protein, S. pombe, UniProt Q10429 1-875, looked up)
chain: MSCIQIISSSQTSIAGHRKLCNKLFTLRTQEGFETDILRALNIILTVKKGNSNADRVLRFLVTFVNYLQQKDPEIDIVQPILKHILRGLDAKDKTVRYRCCQIIARVVNCVKEIDDDLYNTLKEKLLSRVLDRESIVRLEAVVALSRLQEDTGDEENDVRNILLFLLQNDPSSEVRRSVLLNIEVSNSTLPFILERARDVDAANRKCVYARVLPKIGDFRYLSIKKRVRILKWGLNDRDESVEKAAADMLAYQWIENADNNLLELLERLDVSNNSDVAVLAIKKFFDVRVDSLSQLEFPEQFWLELTAESSLLARTFNEICIEKNYTDLLDKMPEVVQLTYYIERQYVSLRDKSSYDESCFIIEQLLYIGLSQDMVDEIGRRKLLKSLTNSLSTMALPDSLISLHIELLRKLCSSENDFCSLLVEIITEVFEQGHSQNQTEEQGNSNAPELNKNDYEGEEITVSQKSPSPSLPPNELNEPEPDDMDGYKEAFNELRCLSYVQCLFENITSSLNENLYMVDMLKTLIIPAVRSHDLPIREKGLECLSLVCLLNADLAFENVPLYLHCYEKGSVVLKCTAIRTLTDMLIQHGKAKFTEYEDAISSILFEALGEFENAELQTLGAEAIAKLLVILHYRDELFLKPLIIQYFEPNTVDNHALRQVLGYFFPVYAFGAHENQWRIATIFCDALLSLLEIYRDLDEDDVQLSIGHIAQQMLDWTDNEKLYERKTQTGDDYIALNHNVHLHLANMIFESLPNASEGKERKFMISLLGKLKIPTDLPSSDYQRTKRKLETYESHGFTMDSTSLSILAKFERMLLQNEEARSKFEETEEERLMENAEENEHAGAEAISGEIIPDTVEANMEDEEEVYVKQEEDL
notes: Cnd3 (Ycg1), S. pombe condensin HEAT-repeat subunit; cDNA cloned into an S. cerevisiae expression vector; also called Cnd3^CAP-G; source: S. cerevisiae (w303, pep4 deleted), co-overexpressed with the other four condensin subunits from GAL1-10 promoters; in cell extract, and purified as the complex (IgG-agarose, 3C protease elution, heparin, Superose 6)
